Measured values published in publication PMC9944321.

Legend:
[1] = biological target: deuterated green fluorescent protein [GFP: P42212]; test: small-angle neutron scattering (SANS); free protein in solution, about 5 mg/mL in Tris-buffer, h-GFP in D2O and d-GFP in H2O, 2-mm quartz cells, ambient conditions; Rg, P(r) and DAMMIF ab initio reconstruction
[2] = biological target: hydrogenated green fluorescent protein [GFP: P42212]; test: as above

Row | stoichiometry N [1] | stoichiometry N [2] | Substance
1 | 2 |  | deuterated green fluorescent protein (from UniProt P42212 2-238) (natural protein)
2 |  | 2 | hydrogenated green fluorescent protein (from UniProt P42212 2-238) (natural protein)
